Results taken from article PMC6791878, “Evaluation of integrin αvβ6 cystine knot PET tracers to detect cancer and idiopathic pulmonary fibrosis” (Nature Communications, 2019).

Columns and labels:
Experiment in all cases: flow cytometry on cells; equilibrium titration: 100 nM to 300 pM recombinant integrin αvβ6 incubated with 10^5 yeast cells displaying the knottin plus 10^6 un-induced yeast cells; integrin binding buffer (25 mM Tris pH 7.4, 150 mM NaCl, 2 mM CaCl2, 1 mM MgCl2, 1 mM MnCl2, 0.1% BSA); fluorescein anti-αv antibody, binding normalised to cMyc expression
[1] = molecular target: R01 cystine knot peptide displayed on the yeast surface
[2] = molecular target: R01-MG cystine knot peptide displayed on the yeast surface
[3] = molecular target: R01-MR cystine knot peptide displayed on the yeast surface

“Recombinant human integrin αvβ6 (from UniProt P06756 31-1048; P18564 22-709) (complex)” showed a Kd [1] of 1 nM, a Kd [2] of 1.24 nM and a Kd [3] of 1 nM.
